{"source": "patent US20240343823A1", "about": "(Ablynx, published 2024)", "binders": {"B1": {"name": "A022600424 (other)", "chain": "DVQLVESGGGVVQPGGSLRLSCVASGYVHKINFYGWYRQAPGKEREKVAHISIGDQTDYADSAKGRFTISRDESKNTVYLQMNSLRPEDTAAYYCRALSRIWPYDYWGQGTLVTVSSGGGGSEVQLVESGGGVVQPGGSLRLSCAASGFTFSSFAMTWVRRPPGKGLEWVATITNKGVTSYADSVKGRFTISRDNAKNTLYLQMNSLRPEDTALYICANARRTGPRAPTDIGSYRGQGTLVTVSSGGGGSGGGSEVQLVESGGGVVQPGGSLRLSCAASGSIFRSVFSSSTMEWYRQAPGKKRELVARIAPGEGTYYGALYADSVKGRFTISRDNAKNTVYLQMNSLRPEDTALYYCASGVAWGQGTLVTVSSGGGGSGGGSEVQLVESGGGVVQPGGSLRLSCAASGFTFRSFGMSWVRQAPGKGPEWVSSISGSGSDTLYADSVKGRFTISRDNSKNTLYLQMNSLRPEDTALYYCTIGGSLSRSSQGTLVTVSSA", "notes": "Trispecific tetravalent ISVD (VHH) T-cell engager: anti-TCR, two anti-GPC3 (biparatopic), anti-albumin; also called TCE01-5GS-A022600351-9GS-A022600314-9GS-ALB23002-A"}}, "key": {"[1]": {"molecular_target": "T1, human GPC3 expressed on CHO Flp-In cells (human, UniProt P51654 25-554)", "T1 construct": "On cells; Q25-R358, S359-H580; also called hGPC3 CHO; CHO huGPC3", "assay": "flow cytometry on cells expressing GPC3; upper end tied by Table 21 to CHO human GPC3"}, "[2]": {"molecular_target": "T2, human GPC3 on tumor cell lines (HepG2, Huh-7, NCI-H661, MKN-45, NCI-H23, BxPC-3, NCI-H292) (human, UniProt P51654 25-554)", "T2 construct": "Endogenous GPC3 of human cancer cell lines; also called GPC3 on HepG2; GPC3 on Huh-7", "assay": "flow cytometry on Huh-7 cells"}, "[3]": {"molecular_target": "T3, cyno TCRab, in house produced (extracellular domains fused to a zipper peptide) (cynomolgus)", "T3 construct": "Numbering of the four differences is not explained; not shown: variable domains, if any; any residues beyond C131 of the beta chain", "T3 alpha": "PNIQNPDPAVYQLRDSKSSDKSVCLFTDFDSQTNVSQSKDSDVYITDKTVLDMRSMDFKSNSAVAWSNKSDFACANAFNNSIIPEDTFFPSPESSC", "T3 beta": "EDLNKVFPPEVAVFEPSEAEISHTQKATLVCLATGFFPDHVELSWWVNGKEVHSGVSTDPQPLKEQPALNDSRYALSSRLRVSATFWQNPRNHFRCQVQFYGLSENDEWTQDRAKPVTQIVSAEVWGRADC", "assay": "SPR ProteOn XPR36, TCRab immobilized by amine coupling, 1:1 model", "protocol": "Recombinant TCR proteins were immobilized on a GLC Sensor Chip (Biorad) via amine coupling, using EDC and NHS chemistry (running buffer: HBS-EP+, pH 7.4). Purified ISVDs were injected for 2 minutes (flow rate 45 μL/min) at different concentrations (between 0.2 nM and 200 nM) and dissociation was followed for 900 s. Regeneration was performed by injecting 3 M MgCl₂ for 3 minutes (flow rate 90 μL/min). Data was double referenced by subtracting a reference ligand lane and a blank buffer injection. Processed sensorgrams were analyzed based on the 1:1 interaction model (Langmuir binding model) using ProteOn Manager 3.1.0 (Version 3.1.0.6) software."}, "[4]": {"molecular_target": "T4, human GPC2 (R&D systems, cat no 2304-GP) (human, UniProt Q8N158 24-554, limits assumed)", "T4 construct": "Bought", "T4 sequence (looked up)": "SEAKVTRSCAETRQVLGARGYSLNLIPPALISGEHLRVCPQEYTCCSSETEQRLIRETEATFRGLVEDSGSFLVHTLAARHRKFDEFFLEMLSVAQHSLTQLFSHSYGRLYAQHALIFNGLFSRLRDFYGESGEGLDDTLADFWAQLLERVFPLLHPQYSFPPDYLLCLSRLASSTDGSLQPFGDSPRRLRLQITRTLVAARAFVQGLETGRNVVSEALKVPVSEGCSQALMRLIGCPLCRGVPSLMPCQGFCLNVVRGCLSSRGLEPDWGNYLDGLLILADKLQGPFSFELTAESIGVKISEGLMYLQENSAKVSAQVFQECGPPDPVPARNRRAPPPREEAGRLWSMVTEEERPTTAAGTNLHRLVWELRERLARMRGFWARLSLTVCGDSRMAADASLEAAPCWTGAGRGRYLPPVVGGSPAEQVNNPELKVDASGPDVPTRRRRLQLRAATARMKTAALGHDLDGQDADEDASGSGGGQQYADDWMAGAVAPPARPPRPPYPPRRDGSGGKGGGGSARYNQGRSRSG", "assay": "ELISA, GPC2 coated at 2 ug/mL", "protocol": "(§1) Human GPC1 (R&D systems, cat no 4519-GP), human GPC2 (R&D systems, cat no 2304-GP), human GPC3 (R&D systems, cat no 2119-GP), human Glypican-5 (R&D systems, cat no 2607-G5) and human Glypican-6 (R&D systems, cat no 2845-GP) were directly coated overnight at 4° C. (2 μg/mL, 1×PBS buffer) on a 384-well HB SpectraPlate (PerkinElmer). The following day the plate was washed 6 times (AquaMax microplate washer, Molecular devices) and blocked with 1×PBS+1% Casein for 2 hours at room temperature. […] After 6 final wash steps the es(HS)TMB substrate (SDT) was added and the reaction stopped by addition of 1 M HCl after 10 minutes. The absorbance of the plate was measured at wavelengths 450 and 620 nm on the Clariostar instrument (BMG LABTECH) and the OD₄₅₀-OD₆₂₀ calculated and plotted for data analysis."}, "[5]": {"molecular_target": "T5, cyno GPC3 expressed on CHO Flp-In cells (cynomolgus)", "T5 construct": "range 3-559; On cells; also called cyGPC3 CHO; CHO-cGPC3", "assay": "flow cytometry on CHO Flp-In cyno GPC3 cells"}, "[6]": {"molecular_target": "T2, human GPC3 on tumor cell lines (HepG2, …)", "assay": "cell-based or functional assay"}, "[7]": {"molecular_target": "T6, Human GPC1 (R&D systems, cat no 4519-GP) (human, UniProt P35052 24-530, limits assumed)", "T6 construct": "Bought", "T6 sequence (looked up)": "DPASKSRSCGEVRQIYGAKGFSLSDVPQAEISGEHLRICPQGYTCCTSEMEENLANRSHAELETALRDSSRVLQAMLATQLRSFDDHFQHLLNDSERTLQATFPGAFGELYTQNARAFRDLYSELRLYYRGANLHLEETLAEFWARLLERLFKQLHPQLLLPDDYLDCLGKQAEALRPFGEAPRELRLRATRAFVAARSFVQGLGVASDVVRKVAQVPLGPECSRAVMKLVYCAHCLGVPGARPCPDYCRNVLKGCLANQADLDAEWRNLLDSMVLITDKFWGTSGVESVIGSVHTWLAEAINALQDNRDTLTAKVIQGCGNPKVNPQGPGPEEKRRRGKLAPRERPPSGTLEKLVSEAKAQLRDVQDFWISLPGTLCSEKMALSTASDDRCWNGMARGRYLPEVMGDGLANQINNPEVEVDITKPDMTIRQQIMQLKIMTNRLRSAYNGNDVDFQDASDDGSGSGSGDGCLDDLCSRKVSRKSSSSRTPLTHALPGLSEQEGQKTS", "assay": "ELISA, GPC1 coated at 2 ug/mL", "protocol": "as §1"}, "[8]": {"molecular_target": "T5, cyno GPC3 expressed on CHO Flp-In cells", "assay": "flow cytometry on cells expressing GPC3; lower end tied by Table 21 to CHO cyno GPC3"}}}
{"binder": "B1", "values": [{"measurement": "EC50", "setting": "[1]", "value": "1 to 2", "unit": "nM"}, {"measurement": "EC50", "setting": "[2]", "value": 1.25, "unit": "nM"}, {"measurement": "Kd", "setting": "[3]", "value": 5.4, "unit": "nM"}, {"measurement": "binding result", "setting": "[4]", "value": "no binding"}, {"measurement": "EC50", "setting": "[5]", "value": 1.11, "unit": "nM"}, {"measurement": "IC50 (M) BxPC-3, xCELLigence human TDC assay", "setting": "[6]", "value": "> 1e-07", "unit": "M"}, {"measurement": "IC50 (M) HepG2, xCELLigence human TDC assay", "setting": "[6]", "value": "1.15e-10", "unit": "M"}, {"measurement": "IC50 (M) Huh-7, xCELLigence human TDC assay", "setting": "[6]", "value": "1.16e-10", "unit": "M"}, {"measurement": "IC50 (M) NCI-H23, xCELLigence human TDC assay", "setting": "[6]", "value": "> 1e-07", "unit": "M"}, {"measurement": "IC50 (M) NCI-H661, xCELLigence human TDC assay", "setting": "[6]", "value": "1.14e-10", "unit": "M"}, {"measurement": "binding result", "setting": "[7]", "value": "no binding"}, {"measurement": "EC50", "setting": "[8]", "value": "1 to 2", "unit": "nM"}]}
